In doi:10.1101/2024.11.25.625210:

Biological target: Tom1 (S. cerevisiae HECT ubiquitin ligase), full-length, wild type (S. cerevisiae) (UniProt Q03280)
Experiment: cryo-EM structure

Sequence of UniProt Q03280 (Q03280 whole entry): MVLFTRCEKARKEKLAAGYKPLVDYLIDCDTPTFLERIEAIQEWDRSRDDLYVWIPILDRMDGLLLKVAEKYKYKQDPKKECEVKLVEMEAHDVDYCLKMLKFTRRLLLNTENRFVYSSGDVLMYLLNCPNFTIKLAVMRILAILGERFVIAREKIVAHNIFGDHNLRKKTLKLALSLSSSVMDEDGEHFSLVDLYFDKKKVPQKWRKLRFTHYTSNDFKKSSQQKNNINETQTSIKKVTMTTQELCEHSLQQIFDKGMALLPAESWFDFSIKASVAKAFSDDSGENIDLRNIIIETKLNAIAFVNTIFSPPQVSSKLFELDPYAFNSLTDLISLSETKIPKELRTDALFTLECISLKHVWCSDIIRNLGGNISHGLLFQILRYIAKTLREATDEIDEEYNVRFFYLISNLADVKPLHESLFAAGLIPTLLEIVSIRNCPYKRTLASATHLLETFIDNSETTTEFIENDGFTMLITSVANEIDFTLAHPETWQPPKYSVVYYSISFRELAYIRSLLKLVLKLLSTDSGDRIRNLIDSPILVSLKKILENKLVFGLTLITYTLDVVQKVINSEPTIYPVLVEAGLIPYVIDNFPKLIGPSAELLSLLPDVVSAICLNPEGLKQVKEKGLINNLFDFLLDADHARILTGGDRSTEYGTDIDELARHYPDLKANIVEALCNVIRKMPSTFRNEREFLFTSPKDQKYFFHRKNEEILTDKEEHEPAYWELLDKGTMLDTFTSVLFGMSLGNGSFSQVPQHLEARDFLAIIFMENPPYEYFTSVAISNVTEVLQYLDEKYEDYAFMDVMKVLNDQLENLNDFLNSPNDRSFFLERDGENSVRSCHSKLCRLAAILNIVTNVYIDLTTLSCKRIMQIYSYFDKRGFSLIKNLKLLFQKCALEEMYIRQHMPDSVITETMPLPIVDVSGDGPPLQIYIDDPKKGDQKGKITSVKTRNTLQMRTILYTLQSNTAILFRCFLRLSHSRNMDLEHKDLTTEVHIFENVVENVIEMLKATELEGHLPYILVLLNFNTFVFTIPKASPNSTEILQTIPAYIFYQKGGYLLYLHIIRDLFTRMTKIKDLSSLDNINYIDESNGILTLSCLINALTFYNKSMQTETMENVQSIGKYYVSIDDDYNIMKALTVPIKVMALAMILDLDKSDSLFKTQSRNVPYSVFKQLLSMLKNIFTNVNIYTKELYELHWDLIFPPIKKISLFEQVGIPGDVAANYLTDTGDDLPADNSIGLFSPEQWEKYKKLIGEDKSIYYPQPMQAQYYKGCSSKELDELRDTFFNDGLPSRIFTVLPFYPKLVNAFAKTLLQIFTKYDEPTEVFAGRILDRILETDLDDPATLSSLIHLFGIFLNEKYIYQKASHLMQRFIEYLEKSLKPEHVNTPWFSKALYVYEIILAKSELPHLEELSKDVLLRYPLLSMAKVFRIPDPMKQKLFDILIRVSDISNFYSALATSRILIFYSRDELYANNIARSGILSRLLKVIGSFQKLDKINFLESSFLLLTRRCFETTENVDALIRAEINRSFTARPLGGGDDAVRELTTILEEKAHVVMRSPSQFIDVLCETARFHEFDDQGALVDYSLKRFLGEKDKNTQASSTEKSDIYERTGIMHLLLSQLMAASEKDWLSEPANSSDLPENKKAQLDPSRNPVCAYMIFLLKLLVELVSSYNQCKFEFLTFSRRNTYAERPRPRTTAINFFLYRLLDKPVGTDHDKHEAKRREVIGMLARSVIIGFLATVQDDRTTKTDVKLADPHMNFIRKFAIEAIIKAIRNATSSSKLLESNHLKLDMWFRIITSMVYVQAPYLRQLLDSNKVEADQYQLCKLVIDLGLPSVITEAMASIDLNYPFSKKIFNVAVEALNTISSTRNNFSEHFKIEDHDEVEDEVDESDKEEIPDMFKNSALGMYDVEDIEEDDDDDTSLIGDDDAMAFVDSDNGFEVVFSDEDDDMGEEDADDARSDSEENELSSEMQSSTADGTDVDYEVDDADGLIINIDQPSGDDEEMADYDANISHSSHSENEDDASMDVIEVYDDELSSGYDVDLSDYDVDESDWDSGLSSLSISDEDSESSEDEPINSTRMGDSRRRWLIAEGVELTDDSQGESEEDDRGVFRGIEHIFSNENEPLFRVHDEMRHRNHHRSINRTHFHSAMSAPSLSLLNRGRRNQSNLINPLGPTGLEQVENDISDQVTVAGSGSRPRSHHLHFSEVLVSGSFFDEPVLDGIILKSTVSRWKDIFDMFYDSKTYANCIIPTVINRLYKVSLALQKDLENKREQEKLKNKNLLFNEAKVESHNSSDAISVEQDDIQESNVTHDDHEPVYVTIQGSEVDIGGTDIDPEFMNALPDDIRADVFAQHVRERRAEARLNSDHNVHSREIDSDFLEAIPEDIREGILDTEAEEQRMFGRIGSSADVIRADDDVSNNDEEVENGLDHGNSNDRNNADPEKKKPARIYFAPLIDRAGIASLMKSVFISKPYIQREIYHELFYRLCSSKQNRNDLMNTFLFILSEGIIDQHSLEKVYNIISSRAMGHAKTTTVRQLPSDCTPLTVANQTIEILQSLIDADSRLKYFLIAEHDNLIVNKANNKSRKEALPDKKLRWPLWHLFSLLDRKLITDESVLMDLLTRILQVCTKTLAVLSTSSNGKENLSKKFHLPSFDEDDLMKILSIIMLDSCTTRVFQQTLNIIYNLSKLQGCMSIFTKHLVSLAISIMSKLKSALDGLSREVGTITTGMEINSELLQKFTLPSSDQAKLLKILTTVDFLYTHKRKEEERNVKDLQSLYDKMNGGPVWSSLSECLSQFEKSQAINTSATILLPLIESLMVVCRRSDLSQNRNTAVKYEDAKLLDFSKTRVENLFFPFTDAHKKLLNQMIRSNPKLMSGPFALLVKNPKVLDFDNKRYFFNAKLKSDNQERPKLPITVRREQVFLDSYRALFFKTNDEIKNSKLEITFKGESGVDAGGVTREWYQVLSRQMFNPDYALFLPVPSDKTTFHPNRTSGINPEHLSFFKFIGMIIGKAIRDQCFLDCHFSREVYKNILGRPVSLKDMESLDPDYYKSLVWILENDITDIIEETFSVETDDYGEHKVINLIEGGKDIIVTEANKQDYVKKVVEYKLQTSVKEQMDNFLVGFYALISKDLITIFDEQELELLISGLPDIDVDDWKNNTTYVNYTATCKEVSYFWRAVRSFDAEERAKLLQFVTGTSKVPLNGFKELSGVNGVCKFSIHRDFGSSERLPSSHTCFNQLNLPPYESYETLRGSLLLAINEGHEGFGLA

Substance: ubiquitin (from UniProt P0CG48 1-76) (natural protein)
- stoichiometry N: 4
